B1: LINE1-mini (parent)
chain: GGCAGAGCUCAACACAGCGUGGCAAAGUGGCUGUGGCUAGACUGCC

Variants of: B1
Assay: self-cleavage, relative activity (ratio to wild type); higher = more cleavage; in vitro, sequencing; the parent is a self-cleaving ribozyme

| Variant | self-cleavage |
| --- | --- |
| GGCAGAGCUCAACACAGCGUGCCAAAGUGGCCGUGGCUAGACUGCC [G22C U32C] | 0.11 |
| GGCAGAGCUCAACACAGCGUGCCAAAGUGGCAGUGGCUAGACUGCC [G22C U32A] | 0.04 |
| GGCAGAGCUCAACACAGCGUGCCAAAGUGGCGGUGGCUAGACUGCC [G22C U32G] | 0.2 |
| GGCAGAGCUCAACACAGCGUGCCAAAGUGGCUGUGGGUAGACUGCC [G22C C37G] | 0.05 |
| GGCAGAGCUCAACACAGCGUGCCAAAGUGGCUGUGGUUAGACUGCC [G22C C37U] | 0.02 |
| GGCAGAGCUCAACACAGCGUGCCAAAGUGGCUGUGGAUAGACUGCC [G22C C37A] | 0.09 |
| GGCAGAGCUCAACACAGCGUGCCAAAGUGUCUGUGGCUAGACUGCC [G22C G30U] | 0.53 |
| GGCAGAGCUCAACACAGCGUGCCAAAGUGCCUGUGGCUAGACUGCC [G22C G30C] | 1.94 |
| GGCAGAGCUCAACACAGCGUGCCAAAGUGACUGUGGCUAGACUGCC [G22C G30A] | 0.76 |
| GGCAGAGCUCAACACAGCGUGCCAAAGUGGCUGUGGCUAGACUCCC [G22C G44C] | 0.41 |
| GGCAGAGCUCAACACAGCGUGCCAAAGUGGCUGUGGCUAGACUUCC [G22C G44U] | 0.4 |
| GGCAGAGCUCAACACAGCGUGCCAAAGUGGCUGUGGCUAGACUACC [G22C G44A] | 0.13 |
| GGCAGAGCUCAACACAGCGUGCCAAAGUGGCUGUGGCUAGACUGUC [G22C C45U] | 1.21 |
| GGCAGAGCUCAACACAGCGUGCCAAAGUGGCUGUGGCUAGACUGGC [G22C C45G] | 0.17 |
| GGCAGAGCUCAACACAGCGUGCCAAAGUGGCUGUGGCUAGACUGAC [G22C C45A] | 0.39 |
| GGCAGAGCUCAACACAGCGUGCAAAAGUGGCUGUGGCUAGACUGCC [G22C C23A] | 0.92 |
| GGCAGAGCUCAACACAGCGUGCGAAAGUGGCUGUGGCUAGACUGCC [G22C C23G] | 0.28 |
| GGCAGAGCUCAACACAGCGUGCUAAAGUGGCUGUGGCUAGACUGCC [G22C C23U] | 0.64 |
| GGCAGAGCUCAACACAGCGUGCCAAAAUGGCUGUGGCUAGACUGCC [G22C G27A] | 0.75 |

| Variant | self-cleavage |
| --- | --- |
| GGCAGAGCUCAACACAGCGUGCCAAAUUGGCUGUGGCUAGACUGCC [G22C G27U] | 0.53 |
| GGCAGAGCUCAACACAGCGUGCCAAACUGGCUGUGGCUAGACUGCC [G22C G27C] | 0.44 |
| GGCAGAGCUCAACACAGCGUGCCAAAGUGGCUGUGGCUAGAGUGCC [G22C C42G] | 0.03 |
| GGCAGAGCUCAACACAGCGUGCCAAAGUGGCUGUGGCUAGAUUGCC [G22C C42U] | 0.21 |
| GGCAGAGCUCAACACAGCGUGCCAAAGUGGCUGUGGCUAGAAUGCC [G22C C42A] | 0.13 |
| GGCAGAGCUCAACACAGCGUGCCAAAGUGGCUGUUGCUAGACUGCC [G22C G35U] | 0.15 |
| GGCAGAGCUCAACACAGCGUGCCAAAGUGGCUGUCGCUAGACUGCC [G22C G35C] | 0.08 |
| GGCAGAGCUCAACACAGCGUGCCAAAGUGGCUGUAGCUAGACUGCC [G22C G35A] | 0.14 |
| GGCAGAGCUCAACACAGCGUGCCAAAGUGGCUGUGGCUAGACUGCA [G22C C46A] | 0.61 |
| GGCAGAGCUCAACACAGCGUGCCAAAGUGGCUGUGGCUAGACUGCU [G22C C46U] | 0.65 |
| GGCAGAGCUCAACACAGCGUGCCAAAGUGGCUGUGGCUAGACUGCG [G22C C46G] | 0.13 |
| GGCAGAGCUCAACACAGCGUGCCAAAGUGGCUGUGGCUAUACUGCC [G22C G40U] | 0.14 |
| GGCAGAGCUCAACACAGCGUGCCAAAGUGGCUGUGGCUAAACUGCC [G22C G40A] | 0.09 |
| GGCAGAGCUCAACACAGCGUGCCAAAGUGGCUGUGGCUACACUGCC [G22C G40C] | 0.08 |
| GGCAGAGCUCAACACAGCGUGCCAAAGUAGCUGUGGCUAGACUGCC [G22C G29A] | 1.19 |
| GGCAGAGCUCAACACAGCGUGCCAAAGUUGCUGUGGCUAGACUGCC [G22C G29U] | 0.38 |
| GGCAGAGCUCAACACAGCGUGCCAAAGUCGCUGUGGCUAGACUGCC [G22C G29C] | 0.27 |
| GGCAGAGCUCAACACAGCGUGCCAAAGCGGCUGUGGCUAGACUGCC [G22C U28C] | 0.5 |
| GGCAGAGCUCAACACAGCGUGCCAAAGGGGCUGUGGCUAGACUGCC [G22C U28G] | 0.43 |

| Variant | self-cleavage |
| --- | --- |
| GGCAGAGCUCAACACAGCGUGCCAAAGAGGCUGUGGCUAGACUGCC [G22C U28A] | 0.44 |
| GGCAGAGCUCAACACAGCGUGCCAAAGUGGCUGUGUCUAGACUGCC [G22C G36U] | 0.1 |
| GGCAGAGCUCAACACAGCGUGCCAAAGUGGCUGUGCCUAGACUGCC [G22C G36C] | 0.25 |
| GGCAGAGCUCAACACAGCGUGCCAAAGUGGCUGUGACUAGACUGCC [G22C G36A] | 0.05 |
| GGCAGAGCUCAACACAGCGUGCCAAAGUGGAUGUGGCUAGACUGCC [G22C C31A] | 0.14 |
| GGCAGAGCUCAACACAGCGUGCCAAAGUGGUUGUGGCUAGACUGCC [G22C C31U] | 0.26 |
| GGCAGAGCUCAACACAGCGUGCCAAAGUGGGUGUGGCUAGACUGCC [G22C C31G] | 0.08 |
| GGCAGAGCUCAACACAGCGUGCCAAAGUGGCUGUGGCUAGUCUGCC [G22C A41U] | 0.72 |
| GGCAGAGCUCAACACAGCGUGCCAAAGUGGCUGUGGCUAGGCUGCC [G22C A41G] | 0.23 |
| GGCAGAGCUCAACACAGCGUGCCAAAGUGGCUGUGGCUAGCCUGCC [G22C A41C] | 0.05 |
| GGCAGAGCUCAACACAGCGUGCCAAAGUGGCUGUGGCUGGACUGCC [G22C A39G] | 0.09 |
| GGCAGAGCUCAACACAGCGUGCCAAAGUGGCUGUGGCUUGACUGCC [G22C A39U] | 0.55 |
| GGCAGAGCUCAACACAGCGUGCCAAAGUGGCUGUGGCUCGACUGCC [G22C A39C] | 0.19 |
| GGCAGAGCUCAACACAGCGUGCCAAAGUGGCUGAGGCUAGACUGCC [G22C U34A] | 0.09 |
| GGCAGAGCUCAACACAGCGUGCCAAAGUGGCUGCGGCUAGACUGCC [G22C U34C] | 0.17 |
| GGCAGAGCUCAACACAGCGUGCCAAAGUGGCUAUGGCUAGACUGCC [G22C G33A] | 0.07 |
| GGCAGAGCUCAACACAGCGUGCCAAAGUGGCUUUGGCUAGACUGCC [G22C G33U] | 0.06 |
| GGCAGAGCUCAACACAGCGUGCCAAAGUGGCUCUGGCUAGACUGCC [G22C G33C] | 0.06 |

From the RNAGym collection of RNA variant scans (doi:10.7554/elife.90254)
